Experiments:
[1] = target: BMP-2 N102D mutant, mature form (human)
[2] = target: T1, Bone morphogenetic protein 2 (BMP-2), wild type, mature form (human)
T1 sequence (P12643 whole entry, looked up): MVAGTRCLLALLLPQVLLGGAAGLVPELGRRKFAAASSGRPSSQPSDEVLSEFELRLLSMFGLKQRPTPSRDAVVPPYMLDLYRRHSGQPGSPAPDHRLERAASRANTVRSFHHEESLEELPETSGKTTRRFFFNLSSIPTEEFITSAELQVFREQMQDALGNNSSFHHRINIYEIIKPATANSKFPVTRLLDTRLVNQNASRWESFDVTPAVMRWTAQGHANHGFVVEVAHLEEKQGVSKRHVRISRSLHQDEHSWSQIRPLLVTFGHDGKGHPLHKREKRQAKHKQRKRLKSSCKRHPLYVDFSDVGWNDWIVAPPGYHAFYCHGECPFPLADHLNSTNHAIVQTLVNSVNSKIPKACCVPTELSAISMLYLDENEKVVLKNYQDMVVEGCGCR

B1: Noggin (residues 28-232) (natural protein)
chain: MQHYLHIRPAPSDNLPLVDLIEHPDPIFDPKEKDLNETLLRSLLGGHYDPGFMATSPPEDRPGGGGGAAGGAEDLAELDQLLRQRPSGAMPSEIKGLEFSEGLAQGKKQRLSKKLRRKLQMWLWSQTFCPVLYAWNDLGSRFWPRYVKVGSCFSKRSCSVPEGMVCKPSKSVHLTVLRWRCQRRGGQRCGWIPIQYPIISECKCSC
modifications: biotin (biotinylated Noggin in the BLI experiments); methionine oxidation, mainly on the N-terminal methionine, in part of the sample
IC50 of Noggin (0.16 to 160 nM) on ALP activity and Alizarin Red staining (calcium deposition) of ATDC5 cells stimulated with 10 nM N102D BMP-2, day 7 [1]: 8 nM | IC50 of Noggin (0.16 to 160 nM) on ALP activity and Alizarin Red staining (calcium deposition) of ATDC5 cells stimulated with 10 nM WT BMP-2, day 7 [2]: 8 nM

Source: publication PMC9929448
